Tests used:
[1] = target: CSPG4 domain 1 fragment, residues 401-560 (D1401-560), C-terminal GFP (UniProt Q6UVK1); assay: Bio-layer interferometry (Octet Red 96, ForteBio); details: pH 7.5; 25°C; PBS (composition not stated)
[2] = target: Frizzled-2 cysteine-rich domain Fc fusion (FZD2-CRD-Fc, 'CRD2') (UniProt Q14332); assay: Bio-layer interferometry (Octet Red 96, ForteBio); details: 25°C, PBS (composition not stated)
[3] = target: FZD2 CRD (CRD2) CRD (Homo sapiens) (UniProt Q14332); details: cited from earlier work
[4] = target: CSPG4 D1401-560 401-560 (Homo sapiens) (UniProt Q6UVK1); details: cited from earlier work
[5] = target: TcdB-biotin (biotinylated full-length TcdB) (Clostridioides difficile (VPI 10463 …, UniProt P18177 1-2366)); assay: ELISA; details: both partners purified

Chain of CSPG4 domain 1 fragment, residues 401-560 (D1401-560), C-terminal GFP (Q6UVK1 whole entry, the tested form may be a part): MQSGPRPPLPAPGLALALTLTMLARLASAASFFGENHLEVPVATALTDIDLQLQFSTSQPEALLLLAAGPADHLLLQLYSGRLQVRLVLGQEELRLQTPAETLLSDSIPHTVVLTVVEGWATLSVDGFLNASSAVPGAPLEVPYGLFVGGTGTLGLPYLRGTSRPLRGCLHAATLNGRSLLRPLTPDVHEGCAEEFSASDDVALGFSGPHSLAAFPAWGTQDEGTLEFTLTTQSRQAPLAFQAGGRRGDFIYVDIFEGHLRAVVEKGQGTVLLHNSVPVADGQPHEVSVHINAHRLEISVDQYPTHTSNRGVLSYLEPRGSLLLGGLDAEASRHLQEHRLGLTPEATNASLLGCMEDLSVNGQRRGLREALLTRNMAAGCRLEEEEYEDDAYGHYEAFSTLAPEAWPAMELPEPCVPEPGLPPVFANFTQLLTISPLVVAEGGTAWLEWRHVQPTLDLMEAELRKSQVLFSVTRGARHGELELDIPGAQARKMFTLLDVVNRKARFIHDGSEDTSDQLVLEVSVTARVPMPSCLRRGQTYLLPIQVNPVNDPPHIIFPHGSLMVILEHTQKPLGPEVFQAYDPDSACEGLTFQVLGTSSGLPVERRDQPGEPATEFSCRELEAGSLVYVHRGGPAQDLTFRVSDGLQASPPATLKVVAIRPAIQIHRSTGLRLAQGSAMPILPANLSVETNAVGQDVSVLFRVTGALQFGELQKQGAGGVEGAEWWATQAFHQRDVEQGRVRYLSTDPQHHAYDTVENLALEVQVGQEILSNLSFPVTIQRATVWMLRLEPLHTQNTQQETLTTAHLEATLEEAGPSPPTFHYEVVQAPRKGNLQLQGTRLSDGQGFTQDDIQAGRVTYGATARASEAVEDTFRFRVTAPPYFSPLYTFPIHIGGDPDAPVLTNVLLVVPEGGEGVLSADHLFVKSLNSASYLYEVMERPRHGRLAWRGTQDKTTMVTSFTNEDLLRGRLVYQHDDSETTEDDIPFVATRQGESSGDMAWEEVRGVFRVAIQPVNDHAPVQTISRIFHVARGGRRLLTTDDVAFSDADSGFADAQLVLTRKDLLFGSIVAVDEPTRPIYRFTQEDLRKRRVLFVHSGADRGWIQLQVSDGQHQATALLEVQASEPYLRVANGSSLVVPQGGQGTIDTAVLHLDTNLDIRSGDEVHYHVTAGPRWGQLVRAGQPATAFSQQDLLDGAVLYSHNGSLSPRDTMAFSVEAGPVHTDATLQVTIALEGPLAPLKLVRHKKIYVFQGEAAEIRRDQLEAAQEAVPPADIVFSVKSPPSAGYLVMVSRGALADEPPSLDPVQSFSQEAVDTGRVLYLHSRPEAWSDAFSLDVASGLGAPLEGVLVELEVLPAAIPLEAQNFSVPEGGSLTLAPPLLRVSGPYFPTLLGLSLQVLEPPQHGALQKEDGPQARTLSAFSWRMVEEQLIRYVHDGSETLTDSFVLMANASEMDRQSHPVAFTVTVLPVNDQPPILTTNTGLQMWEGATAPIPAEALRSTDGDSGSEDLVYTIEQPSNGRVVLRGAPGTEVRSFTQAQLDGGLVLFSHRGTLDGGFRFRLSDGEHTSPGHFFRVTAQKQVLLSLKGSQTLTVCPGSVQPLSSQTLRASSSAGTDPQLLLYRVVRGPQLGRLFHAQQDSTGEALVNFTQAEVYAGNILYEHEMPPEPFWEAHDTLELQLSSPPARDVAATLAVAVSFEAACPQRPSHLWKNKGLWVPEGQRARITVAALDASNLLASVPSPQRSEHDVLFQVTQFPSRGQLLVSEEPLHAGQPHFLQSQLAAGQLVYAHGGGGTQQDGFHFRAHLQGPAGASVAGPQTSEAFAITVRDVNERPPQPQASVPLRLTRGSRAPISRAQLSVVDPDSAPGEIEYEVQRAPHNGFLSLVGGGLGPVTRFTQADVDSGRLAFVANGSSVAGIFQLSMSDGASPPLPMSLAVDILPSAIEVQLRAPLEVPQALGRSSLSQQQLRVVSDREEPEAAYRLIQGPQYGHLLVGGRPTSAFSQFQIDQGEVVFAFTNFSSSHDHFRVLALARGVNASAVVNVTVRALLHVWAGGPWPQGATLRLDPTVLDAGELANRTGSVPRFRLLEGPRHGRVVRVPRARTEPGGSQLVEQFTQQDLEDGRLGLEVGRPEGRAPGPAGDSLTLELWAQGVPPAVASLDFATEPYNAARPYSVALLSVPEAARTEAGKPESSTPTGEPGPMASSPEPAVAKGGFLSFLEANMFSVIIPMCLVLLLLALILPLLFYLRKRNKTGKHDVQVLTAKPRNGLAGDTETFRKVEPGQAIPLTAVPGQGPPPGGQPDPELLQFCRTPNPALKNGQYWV

Molecule: Toxin B (TcdB), full length, C-terminal 6xHis
- KD [1]: approximately 10 nM
- KD ([2]; pH 5): approximately 1 μM
- KD ([2]; pH 7.5): approximately 12 nM

Molecule: TcdB (from UniProt P18177)
- Kd [3]: 19 nM
- Kd [4]: 29 nM

B1: CSPG4 domain 1 fragment D1_(401-560) with C-terminal GFP tag (domain or fragment, UniProt Q6UVK1 401-560, looked up)
chain: LAPEAWPAMELPEPCVPEPGLPPVFANFTQLLTISPLVVAEGGTAWLEWRHVQPTLDLMEAELRKSQVLFSVTRGARHGELELDIPGAQARKMFTLLDVVNRKARFIHDGSEDTSDQLVLEVSVTARVPMPSCLRRGQTYLLPIQVNPVNDPPHIIFPHG
notes: not shown: GFP, C-terminal, kept
- binding result [5]: binds

— paper PMC8982864 (PLoS Biology, 2022)
